Legend:
Assay in all cases: SPOT array
[1] = target: T1, Boi1 SH3 (BOI1_YEAST), P38041
T1 chain: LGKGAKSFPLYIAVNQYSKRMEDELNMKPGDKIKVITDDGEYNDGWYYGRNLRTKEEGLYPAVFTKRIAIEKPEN

[2] = target: T2, Boi2 SH3 (BOI2_YEAST), P39969
T2 chain: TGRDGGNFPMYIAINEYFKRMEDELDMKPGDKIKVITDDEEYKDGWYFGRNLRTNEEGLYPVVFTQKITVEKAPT

[3] = target: T3, Myo5 SH3 (MYO5_YEAST), Q04439
T3 chain: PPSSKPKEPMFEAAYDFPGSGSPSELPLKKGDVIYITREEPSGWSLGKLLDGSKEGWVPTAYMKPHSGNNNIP

[4] = target: T4, Rvs167 SH3 (RV167_YEAST), P39743
T4 chain: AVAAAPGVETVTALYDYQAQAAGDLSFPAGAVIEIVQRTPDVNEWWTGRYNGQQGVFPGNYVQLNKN

[5] = target: Sho1 SH3 (SHO1_YEAST), P40073
[6] = target: T5, Yfr024 SH3 (LSB3_YEAST), P43603
T5 chain: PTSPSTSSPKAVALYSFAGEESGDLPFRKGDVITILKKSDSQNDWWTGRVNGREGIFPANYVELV

[7] = target: T6, Yhr016c SH3 (YSC84_YEAST), P32793
T6 chain: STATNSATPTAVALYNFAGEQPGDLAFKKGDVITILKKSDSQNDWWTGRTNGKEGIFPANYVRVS

Chain of Sho1 SH3 (SHO1_YEAST), P40073 (P40073 295-366): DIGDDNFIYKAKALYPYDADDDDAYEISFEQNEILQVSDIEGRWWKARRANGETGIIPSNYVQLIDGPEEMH

B1: YNL007C 295-308 (peptide)
chain: LPLSRVQPVQPSQT
[1]
  normalised SPOT signal, Boehringer light units (BLU); mean over the file's lines of this peptide: 31.9
[2]
  normalised SPOT signal, Boehringer light units (BLU); mean over the file's lines of this peptide: 27.1
[3]
  normalised SPOT signal, Boehringer light units (BLU); mean over the file's lines of this peptide: 122
[4]
  normalised SPOT signal, Boehringer light units (BLU); mean over the file's lines of this peptide: 19.3
[5]
  normalised SPOT signal, Boehringer light units (BLU); mean over the file's lines of this peptide: 32.8
[6]
  normalised SPOT signal, Boehringer light units (BLU); mean over the file's lines of this peptide: 163
[7]
  normalised SPOT signal, Boehringer light units (BLU); mean over the file's lines of this peptide: 21

B2: YPL020C 12-25 (peptide)
chain: LQYHKKNPYSPLFS
[1]
  normalised SPOT signal, Boehringer light units (BLU); mean over the file's lines of this peptide: 451
[2]
  normalised SPOT signal, Boehringer light units (BLU); mean over the file's lines of this peptide: 99.3
[3]
  normalised SPOT signal, Boehringer light units (BLU); mean over the file's lines of this peptide: 318
[4]
  normalised SPOT signal, Boehringer light units (BLU); mean over the file's lines of this peptide: 208
[5]
  normalised SPOT signal, Boehringer light units (BLU); mean over the file's lines of this peptide: 63.3
[6]
  normalised SPOT signal, Boehringer light units (BLU); mean over the file's lines of this peptide: 73.4
[7]
  normalised SPOT signal, Boehringer light units (BLU); mean over the file's lines of this peptide: 80.3

B3: YOR231W 77-90 (peptide)
chain: LNTMKKRPAPPSLP
[1]
  normalised SPOT signal, Boehringer light units (BLU); mean over the file's lines of this peptide: 97.3
[2]
  normalised SPOT signal, Boehringer light units (BLU); mean over the file's lines of this peptide: 72.5
[3]
  normalised SPOT signal, Boehringer light units (BLU); mean over the file's lines of this peptide: 22300
[4]
  normalised SPOT signal, Boehringer light units (BLU); mean over the file's lines of this peptide: 271
[5]
  normalised SPOT signal, Boehringer light units (BLU); mean over the file's lines of this peptide: 374
[6]
  normalised SPOT signal, Boehringer light units (BLU); mean over the file's lines of this peptide: 1440
[7]
  normalised SPOT signal, Boehringer light units (BLU); mean over the file's lines of this peptide: 202

B4: YBL101C 847-860 (peptide)
chain: LRISKPDPESPSKL
[1]
  normalised SPOT signal, Boehringer light units (BLU); mean over the file's lines of this peptide: 242
[2]
  normalised SPOT signal, Boehringer light units (BLU); mean over the file's lines of this peptide: 0.6
[3]
  normalised SPOT signal, Boehringer light units (BLU); mean over the file's lines of this peptide: 246
[4]
  normalised SPOT signal, Boehringer light units (BLU); mean over the file's lines of this peptide: 109
[5]
  normalised SPOT signal, Boehringer light units (BLU); mean over the file's lines of this peptide: 22.3
[6]
  normalised SPOT signal, Boehringer light units (BLU); mean over the file's lines of this peptide: 205
[7]
  normalised SPOT signal, Boehringer light units (BLU); mean over the file's lines of this peptide: 74.5

B5: YOL152W 75-88 (peptide)
chain: LPEKKNSPTTPSVF
[1]
  normalised SPOT signal, Boehringer light units (BLU); mean over the file's lines of this peptide: 88.9
[2]
  normalised SPOT signal, Boehringer light units (BLU); mean over the file's lines of this peptide: 0
[3]
  normalised SPOT signal, Boehringer light units (BLU); mean over the file's lines of this peptide: 102
[4]
  normalised SPOT signal, Boehringer light units (BLU); mean over the file's lines of this peptide: 67.3
[5]
  normalised SPOT signal, Boehringer light units (BLU); mean over the file's lines of this peptide: 54.9
[6]
  normalised SPOT signal, Boehringer light units (BLU); mean over the file's lines of this peptide: 11.4
[7]
  normalised SPOT signal, Boehringer light units (BLU); mean over the file's lines of this peptide: 22.9

B6: YKL216W 87-100 (peptide)
chain: LNRQKNYPDAPAIF
[1]
  normalised SPOT signal, Boehringer light units (BLU); mean over the file's lines of this peptide: 71.2
[2]
  normalised SPOT signal, Boehringer light units (BLU); mean over the file's lines of this peptide: 7.9
[3]
  normalised SPOT signal, Boehringer light units (BLU); mean over the file's lines of this peptide: 86.4
[4]
  normalised SPOT signal, Boehringer light units (BLU); mean over the file's lines of this peptide: 63.3
[5]
  normalised SPOT signal, Boehringer light units (BLU); mean over the file's lines of this peptide: 56.9
[6]
  normalised SPOT signal, Boehringer light units (BLU); mean over the file's lines of this peptide: 38.6
[7]
  normalised SPOT signal, Boehringer light units (BLU); mean over the file's lines of this peptide: 19.7

B7: YKL101W 1214-1227 (peptide)
chain: LSKLRLSPENPSNT
[1]
  normalised SPOT signal, Boehringer light units (BLU); mean over the file's lines of this peptide: 471
[2]
  normalised SPOT signal, Boehringer light units (BLU); mean over the file's lines of this peptide: 33.2
[3]
  normalised SPOT signal, Boehringer light units (BLU); mean over the file's lines of this peptide: 157
[4]
  normalised SPOT signal, Boehringer light units (BLU); mean over the file's lines of this peptide: 37.4
[5]
  normalised SPOT signal, Boehringer light units (BLU); mean over the file's lines of this peptide: 54.8
[6]
  normalised SPOT signal, Boehringer light units (BLU); mean over the file's lines of this peptide: 27.1
[7]
  normalised SPOT signal, Boehringer light units (BLU); mean over the file's lines of this peptide: 7.9

B8: YHR099W 3263-3276 (peptide)
chain: LPFPRKNPKLPENT
[1]
  normalised SPOT signal, Boehringer light units (BLU); mean over the file's lines of this peptide: 289
[2]
  normalised SPOT signal, Boehringer light units (BLU); mean over the file's lines of this peptide: 38.3
[3]
  normalised SPOT signal, Boehringer light units (BLU); mean over the file's lines of this peptide: 147
[4]
  normalised SPOT signal, Boehringer light units (BLU); mean over the file's lines of this peptide: 40.2
[5]
  normalised SPOT signal, Boehringer light units (BLU); mean over the file's lines of this peptide: 149
[6]
  normalised SPOT signal, Boehringer light units (BLU); mean over the file's lines of this peptide: 322
[7]
  normalised SPOT signal, Boehringer light units (BLU); mean over the file's lines of this peptide: 44.2

B9: YFL013C 529-542 (peptide)
chain: LNRKKVTPQLPKVT
[1]
  normalised SPOT signal, Boehringer light units (BLU); mean over the file's lines of this peptide: 384
[2]
  normalised SPOT signal, Boehringer light units (BLU); mean over the file's lines of this peptide: 27.9
[3]
  normalised SPOT signal, Boehringer light units (BLU); mean over the file's lines of this peptide: 500
[4]
  normalised SPOT signal, Boehringer light units (BLU); mean over the file's lines of this peptide: 75.9
[5]
  normalised SPOT signal, Boehringer light units (BLU); mean over the file's lines of this peptide: 263
[6]
  normalised SPOT signal, Boehringer light units (BLU); mean over the file's lines of this peptide: 142
[7]
  normalised SPOT signal, Boehringer light units (BLU); mean over the file's lines of this peptide: 22.7

B10: YCL051W 94-107 (peptide)
chain: LPEPRFYPLSPKNN
[1]
  normalised SPOT signal, Boehringer light units (BLU); mean over the file's lines of this peptide: 95.3
[2]
  normalised SPOT signal, Boehringer light units (BLU); mean over the file's lines of this peptide: 47
[3]
  normalised SPOT signal, Boehringer light units (BLU); mean over the file's lines of this peptide: 289
[4]
  normalised SPOT signal, Boehringer light units (BLU); mean over the file's lines of this peptide: 49.4
[5]
  normalised SPOT signal, Boehringer light units (BLU); mean over the file's lines of this peptide: 33
[6]
  normalised SPOT signal, Boehringer light units (BLU); mean over the file's lines of this peptide: 202
[7]
  normalised SPOT signal, Boehringer light units (BLU); mean over the file's lines of this peptide: 30.9

B11: YBR218C 505-518 (peptide)
chain: LPKLKSNPSVPHLH
[1]
  normalised SPOT signal, Boehringer light units (BLU); mean over the file's lines of this peptide: 843
[2]
  normalised SPOT signal, Boehringer light units (BLU); mean over the file's lines of this peptide: 20.5
[3]
  normalised SPOT signal, Boehringer light units (BLU); mean over the file's lines of this peptide: 193
[4]
  normalised SPOT signal, Boehringer light units (BLU); mean over the file's lines of this peptide: 52.3
[5]
  normalised SPOT signal, Boehringer light units (BLU); mean over the file's lines of this peptide: 114
[6]
  normalised SPOT signal, Boehringer light units (BLU); mean over the file's lines of this peptide: 71.1
[7]
  normalised SPOT signal, Boehringer light units (BLU); mean over the file's lines of this peptide: 5.2

B12: YKL097C 62-75 (peptide)
chain: LPLPKLRPPRPTFA
[1]
  normalised SPOT signal, Boehringer light units (BLU); mean over the file's lines of this peptide: 3930
[2]
  normalised SPOT signal, Boehringer light units (BLU); mean over the file's lines of this peptide: 3.7
[3]
  normalised SPOT signal, Boehringer light units (BLU); mean over the file's lines of this peptide: 77900
[4]
  normalised SPOT signal, Boehringer light units (BLU); mean over the file's lines of this peptide: 87.3
[5]
  normalised SPOT signal, Boehringer light units (BLU); mean over the file's lines of this peptide: 76.3
[6]
  normalised SPOT signal, Boehringer light units (BLU); mean over the file's lines of this peptide: 16600
[7]
  normalised SPOT signal, Boehringer light units (BLU); mean over the file's lines of this peptide: 4270

B13: YBL035C 565-578 (peptide)
chain: LQQRRYYPIFPGSI
[1]
  normalised SPOT signal, Boehringer light units (BLU); mean over the file's lines of this peptide: 6230
[2]
  normalised SPOT signal, Boehringer light units (BLU); mean over the file's lines of this peptide: 472
[3]
  normalised SPOT signal, Boehringer light units (BLU); mean over the file's lines of this peptide: 279
[4]
  normalised SPOT signal, Boehringer light units (BLU); mean over the file's lines of this peptide: 91
[5]
  normalised SPOT signal, Boehringer light units (BLU); mean over the file's lines of this peptide: 38.8
[6]
  normalised SPOT signal, Boehringer light units (BLU); mean over the file's lines of this peptide: 474
[7]
  normalised SPOT signal, Boehringer light units (BLU); mean over the file's lines of this peptide: 44.5

B14: YBR055C 692-705 (peptide)
chain: LSGTRLVPNSPLLW
[1]
  normalised SPOT signal, Boehringer light units (BLU); mean over the file's lines of this peptide: 73.7
[2]
  normalised SPOT signal, Boehringer light units (BLU); mean over the file's lines of this peptide: 29.6
[3]
  normalised SPOT signal, Boehringer light units (BLU); mean over the file's lines of this peptide: 432
[4]
  normalised SPOT signal, Boehringer light units (BLU); mean over the file's lines of this peptide: 1460
[5]
  normalised SPOT signal, Boehringer light units (BLU); mean over the file's lines of this peptide: 94
[6]
  normalised SPOT signal, Boehringer light units (BLU); mean over the file's lines of this peptide: 1410
[7]
  normalised SPOT signal, Boehringer light units (BLU); mean over the file's lines of this peptide: 80.1

B15: YER032W 254-267 (peptide)
chain: LSFDRPPPLTPEKN
[1]
  normalised SPOT signal, Boehringer light units (BLU); mean over the file's lines of this peptide: 92.6
[2]
  normalised SPOT signal, Boehringer light units (BLU); mean over the file's lines of this peptide: 0
[3]
  normalised SPOT signal, Boehringer light units (BLU); mean over the file's lines of this peptide: 174
[4]
  normalised SPOT signal, Boehringer light units (BLU); mean over the file's lines of this peptide: 91.3
[5]
  normalised SPOT signal, Boehringer light units (BLU); mean over the file's lines of this peptide: 48.1
[6]
  normalised SPOT signal, Boehringer light units (BLU); mean over the file's lines of this peptide: 124
[7]
  normalised SPOT signal, Boehringer light units (BLU); mean over the file's lines of this peptide: 7.4

B16: YDL077C 56-69 (peptide)
chain: LQNAKNDPLPPVIE
[1]
  normalised SPOT signal, Boehringer light units (BLU); mean over the file's lines of this peptide: 120
[2]
  normalised SPOT signal, Boehringer light units (BLU); mean over the file's lines of this peptide: 21.8
[3]
  normalised SPOT signal, Boehringer light units (BLU); mean over the file's lines of this peptide: 58.8
[4]
  normalised SPOT signal, Boehringer light units (BLU); mean over the file's lines of this peptide: 47
[5]
  normalised SPOT signal, Boehringer light units (BLU); mean over the file's lines of this peptide: 0.2
[6]
  normalised SPOT signal, Boehringer light units (BLU); mean over the file's lines of this peptide: 10.7
[7]
  normalised SPOT signal, Boehringer light units (BLU); mean over the file's lines of this peptide: 37.2
